In patent US20200131227A1, “POLYPEPTIDE WITH TUMOUR BINDING ACTIVITY” (RUPRECHT-KARLS-UNIVERSITÄT HEIDELBERG, priority 2017, published 2020):
Where a SMILES comes first, the peptide text is derived from it. Bridges are numbered along the chain shown (N, C = ends). The star is where a group is joined. DOTA = O=C(O)CN1CCN(CC(=O)O)CCN(CC(=O)*)CCN(CC(=O)O)CC1

What was measured:
[1] = tested on: recurrent hypopharynx carcinoma; conditions: human, in vivo
Description: (§1) The PET/CT scan was performed 1 and 3 hours post tracer administration with a Biograph mCT Flow™ PET/CT-Scanner (Siemens Medical Solution) using the following parameters: slice thickness of 5 mm, increment of 3-4 mm, soft-tissue reconstruction kernel, care dose Immediately after CT scanning, a whole-body PET was acquired in 3D (matrix 200×200) in FlowMotion™ with 0.7 cm/min. The emission data were corrected for random, scatter and decay. Reconstruction was conducted with an ordered subset expectation maximisation (OSEM) algorithm with 2 iterations/21 subsets and Gauss-filtered to a transaxial resolution of 5 mm at full-width half-maximum (FWHM). Attenuation correction was performed using the low-dose non-enhanced CT data. The quantitative assessment of standardized uptake values (SUV) was done using a region of interest technique.

[2] = tested on: NSCLC; conditions: human, in vivo
Description: as §1

[3] = Small-animal PET imaging, HNO223 xenografts; set-up: species or system mice; conditions: Balb/c nude, mouse, in vivo, iv, total radioactivity
[4] = tested on: HNO97 xenografts; assay: in vivo; conditions: mouse
Description: (§2) All experiments were conducted in compliance with the German animal protection laws. Eight week old Balb c/c nude mice (Charles River Laboratories) were inoculated subcutaneously at the right shoulder with 5×10^6 HNO97 cells in BD MatriGel™ (BD Bioscience). Xenografts were grown to a tumor diameter of 10-15 mm. For small animal-PET imaging mice were anesthetized using isoflurane inhalation and injected via tail-vein with 50 MBq (2 nmol) of the ^68Ga-labeled DOTA-SFITGv6 peptide (see above) solution in 100 μL PBS. Images were recorded on an Inveon small-animal PET scanner (Siemens) using a 60 min emission scan in list mode and a 10 min transmission scan. Images were taken in 3-dimensional (3D) mode and reconstructed iteratively with a fully 3D algorithm from a 256×256 matrix for viewing transaxial, coronal, and sagittal slices of 0.9 mm thickness. Pixel size was 0.38×0.38×0.79 mm3 and transaxial resolution obtained was 0.9 mm. For blocking experiments 100 μL of a 1 mM aqueous solution of SFITGv6 was pre-administered intraperitoneally 30 min before injection of the radiolabeled peptide. Biodistribution studies were performed after administration of 100 μL of a 20 nM ^177Lu-DOTA-SFITGv6 solution (1 MBq) as an intravenous bolus injection into the tail vein of the mice. After different time points (30 min to 6 hours) three animals, respectively, were sacrificed. Peripheral blood, heart, lung, spleen, liver, kidneys, muscle, brain, intestine, and injection site (tail, after intravenous injection only) were collected and weighted. Tissue-associated radioactivity was measured in a gamma counter (Berthold LB951G) and expressed as percentage of the injected dose per gram tissue (% ID/g).
(§3) All animal experiments were conducted in compliance with the German animal protection laws. For in vivo small animal PET imaging and organ distribution studies eight-week old Balb/c nude mice (Charles River Laboratories) were inoculated subcutaneously at the right shoulder with a total of 5×10^6 tumor cells in MatriGel (BD Bioscience). Xenografts were grown until a tumor diameter of 10-15 mm was reached.
(§4) 3-dimensional (3D) PET images of whole mice were captured by the Siemens Inveon PET scanner as described in Example 1. To assess the biodistribution 100 μL of a 20 nM solution (1 MBq) of ^177Lu-DOTA-SFLAP3 and ^177Lu-DOTA-SFITGv6 were administered as an intravenous bolus injection into the tail vein of mice. For each time point (30 min to 6 hours) we sacrificed a total of three animals, and subsequently collected peripheral blood, heart, lung, spleen, liver, kidneys, muscle, brain, and intestine. Tissues were weighed and respective radioactivity was measured by a gamma counter (LB951G, Berthold Technologies). Values were expressed as percentage of the injected dose radioactivity (MBq) per gram tissue (% ID/g).

[5] = in vivo; conditions: Balb/c nude, mouse, iv, total radioactivity
Description: as §2, §3, §4

[6] = Small-animal PET imaging, HNO399 xenografts; set-up: species or system mice; conditions: Balb/c nude, mouse, in vivo, iv, total radioactivity

Structure (SMILES): CSCC[C@@H]1NC(=O)[C@H](CC(C)C)NC(=O)[C@H](CC(=O)O)NC(=O)CNC(=O)[C@H](CCCNC(=N)N)NC(=O)[C@H](Cc2ccccc2)NC(=O)[C@H]([C@@H](C)O)NC(=O)[C@@H](NC(=O)[C@H](CCCNC(=N)N)NC(=O)CNC(=O)CN2CCN(CC(=O)O)CCN(CC(=O)O)CCN(CC(=O)O)CC2)CSSC[C@@H](C(=O)N[C@@H](Cc2ccc(O)cc2)C(=O)N2CCC[C@H]2C(=O)N[C@@H](CC(=O)O)C(=O)O)NC(=O)[C@H](CC(C)C)NC(=O)[C@H](CCC(N)=O)NC1=O [^68Ga-DOTA-SFITGv6, metal not drawn] ({DOTA}-GRCTFRGDLMQLCYPD-OH; disulfide 3-13)
- SUVmax Elbow [1]: 1.70
- SUVmax Gallbladder [1]: 1.90
- SUVmax Hilar [1]: 1.00
- SUVmax Shoulder [2]: 1.50
- SUV at 1 h [3]: 0.23 SUV
- time after injection until radioactivity accumulated in the tumor [4]: ≤ 20 min
- time for which tumor accumulation was maintained [4]: at least 140 min
- time of clearance of non-specific activity from the blood [4]: ≤ 60 min
- SUV at 1 h [5]: 0.68 SUV
- SUV at 1 h [6]: 0.33 SUV
